Source: publication PMC4900678

Test system: Rrp5_C8;Rok1 (Saccharomyces cerevisiae;Saccharomyces cerevisiae)
Assay: glycerol gradient sedimentation
Conditions: EMSA: 200 mM KCl, 10 mM MgCl2, 40 mM HEPES/KOH pH 7.5, 10 mM Mg-AMPPCP or 1 mM Mg-ADP, 12 min 25 C, native gel 4 C. 40S binding: 200 mM KOAc, 20 mM HEPES/KOH …

mature 40S ribosomal subunit (18S rRNA) gave a binding signal (400 uM ADP, 98% of Rrp5 free) of 2 % Rrp5 bound and a binding signal (4 mM AMPPCP) of 15 % Rrp5 bound.
